Experimental findings from patent US20020028208A1 (TEXAS A AND M UNIVERSITY SYSTEM, published 2002) are described below.

B2: feline CD28, surface expressed on CD28-pSI transfected COS-7 cells (receptor)
chain: NKILVKQLPRLVVYNNEVNLSCKYTHNFFSKEFRASLYKGVDSAVEVCVVNGNYSHQPQFYSSTGFDCDGKLGNETVTFYLRNLFVNQTDIYFCKIEVMYPPPYIDNEKSNGTIIHVKEKHLCPAQLSPESSKPFWALVVVGGILGFYSLLATVALGACWMKTKRSRILQSDYMNMTPRRPGPTRRHYQPYAPARDFAAYRS
notes: also called feCD28; CD28 pSI transfected cells

Assay [1] has as its target B2. The experiment in a line: cell-cell adhesion assay at 1x10^6 labeled CD80-pSI COS-7 cells on a CD28-pSI COS-7 monolayer; still significantly higher at 5x10^5 cells, not distinguishable at 1x10^5 and 1x10^4. The method, then: (§1) Binding assays for transfected cells expressing feline CD80 and feline CD28 were performed after the protocol described in Linsley et al., 1994a. One day after transfection, CD28 expressing COS-7 cells were removed from T-75 flasks with trypsin-EDTA treatment. The cells were allowed to adhere in 24 well plates at a concentration of 1×10⁵ cells per ml. Two days later, the feCD80/pSI transfected COS-7 cells were removed from T-75 flasks with PBS/0.5 […] EDTA. These cells were then fluorescently labeled with a 5 μM solution of Calcein AM (Molecular Probes, Eugene, Oreg.) in sterile PBS/1% BSA for 30 min at 37° C. (Akeson and Woods, 1993). Mock transfected COS-7 cells were labeled in the same fashion. The labeled cells were then washed three times with DMEM plus 10% FCS to remove unincorporated label, counted, and added directly to the monolayer. The two cell populations were allowed to interact for 1 hr at 37° C. Nonadherent cells were removed by gently washing the monolayer 3 times with DMEM +10% FCS. Following the washing, the fluorescence of each of the wells was quantitated on a microplate fluorimeter. Fluorescence in wells containing transfected populations was compared to wells in which CD80 expressing cells were added to COS-7 cells transfected with pSI plasmid alone. […]

The next assay concerns the target T1, huCD80-Ig fusion protein (human, UniProt P33681 35-241).
T1 construct: Provided by P. Linsley, Bristol-Meyers Squibb; also called soluble CD80 receptor; soluble receptor for CD28; not shown: Ig part of the fusion
T1 sequence (looked up): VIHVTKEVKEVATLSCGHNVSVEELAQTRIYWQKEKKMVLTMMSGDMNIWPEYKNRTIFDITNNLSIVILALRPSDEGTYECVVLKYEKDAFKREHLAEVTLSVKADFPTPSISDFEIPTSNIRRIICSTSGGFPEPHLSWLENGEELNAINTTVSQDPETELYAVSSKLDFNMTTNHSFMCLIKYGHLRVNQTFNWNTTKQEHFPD
As to the kind of experiment: competitive cell-cell adhesion assay: CD28-pSI COS-7 monolayer pre-incubated with CD80 Ig at 1 ug/ml for 30 min and washed before labeled CD80-pSI COS-7 cells were added. As for the experimental part: as §1

B1: feline CD80 (B7-1)-TAMU, surface expressed on feCD80/pSI transfected COS-7 cells (ligand)
chain: ASLFYFCSGIIQVNKTVEEVAVLSCDYNISTKELTEIRIYWQKDDEMVLAVMSGKVQVWPKYKNRTFTDVTDNHSIVIMALRLSDNGKYTCIIQKIEKGSYKVKHLTSVMLLVRADFPVPSITDLGNPSHNIKRIMCLTSGGFPKPHLSWLENEEELNAINTTVSQDPETELYTISSELDFNMTNNHSFLCLVKYGNLLVSQIFNWQKSEPQPSNNQLWIIILSSVVSGIVVITALTLRCLVHRPAARWRQREMGRARKWKRSHLST
notes: also called CD80-pSI transfected COS cells
As to B1, in assay [1], the “fluorescence retained, fold over wells with mock transfected adherent cells” value was roughly 5 fold. B2: the binding result in the assay with huCD80-Ig fusion protein is given as “binds”.
